{"source": "patent US20100047893", "key": {"[1]": {"target": "mixed bovine histones (Sigma)"}}, "data": [{"protein": "GST-TbPRMT7 (protein) MPPKQHRHQKKDKNDNALQNTIGFVPPGATLASVSGYRPPDAFVNRIDRNIPVPARLRHTPVSLIEAVNDFHYAMMNDEERNNFYYEVLKKHVTPETGVLEIGAGSGLLSLMAAKLGAKWVVAVEGSEELAKLARENIRANNMEHQVKVLHMMSTELKSKHLPEPPDVLLSEIFGTMMLGESALDYVVDVRNRLLKPTTKIIPQFGTQYAVPIECDALHRISSVSGWRDLDLKHMMTLQDTVSIVFAKHYGIRMNSVNFRRLSDPIELFRVDFSSSNRNDIPRRKHFDVVAKESGTAHAMLFYWKVTDDEFVMSTDPEDTVNNFPRDMQWGQALQLLDASNGPLPTPVVFTEGKNYNFECNFSGDRVILHMQLCPESGNGEMTECEGKTT", "values": [{"measurement": "methylarginine derivatives by cation exchange chromatography after 3H-AdoMet reaction", "setting": "RBP16", "result": "only monomethylargnine produced with either histone (B) or RBP16 (C) substrate"}, {"measurement": "methylarginine derivatives by cation exchange chromatography after 3H-AdoMet reaction", "setting": "[1]", "result": "only monomethylargnine produced with either histone (B) or RBP16 (C) substrate"}, {"measurement": "protein arginine methyltransferase activity (3H-AdoMet, SDS-PAGE, fluorography)", "setting": "histone H3, P68432", "result": "the recombinant enzyme possesses protein arginine methyltransferase activity and utilizes histone H3 as a substrate"}]}, {"protein": "TbPRMT7-ProtC (protein) MPPKQHRHQKKDKNDNALQNTIGFVPPGATLASVSGYRPPDAFVNRIDRNIPVPARLRHTPVSLIEAVNDFHYAMMNDEERNNFYYEVLKKHVTPETGVLEIGAGSGLLSLMAAKLGAKWVVAVEGSEELAKLARENIRANNMEHQVKVLHMMSTELKSKHLPEPPDVLLSEIFGTMMLGESALDYVVDVRNRLLKPTTKIIPQFGTQYAVPIECDALHRISSVSGWRDLDLKHMMTLQDTVSIVFAKHYGIRMNSVNFRRLSDPIELFRVDFSSSNRNDIPRRKHFDVVAKESGTAHAMLFYWKVTDDEFVMSTDPEDTVNNFPRDMQWGQALQLLDASNGPLPTPVVFTEGKNYNFECNFSGDRVILHMQLCPESGNGEMTECEGKTT", "values": [{"measurement": "in vitro methylation (3H-AdoMet, fluorography)", "setting": "RBP16", "result": "TbPRMT7-ProtC strongly methylated both histones and RBP16"}, {"measurement": "in vitro methylation (3H-AdoMet, fluorography)", "setting": "[1]", "result": "TbPRMT7-ProtC strongly methylated both histones and RBP16"}]}, {"protein": "recombinant TbPRMT7 (protein) MPPKQHRHQKKDKNDNALQNTIGFVPPGATLASVSGYRPPDAFVNRIDRNIPVPARLRHTPVSLIEAVNDFHYAMMNDEERNNFYYEVLKKHVTPETGVLEIGAGSGLLSLMAAKLGAKWVVAVEGSEELAKLARENIRANNMEHQVKVLHMMSTELKSKHLPEPPDVLLSEIFGTMMLGESALDYVVDVRNRLLKPTTKIIPQFGTQYAVPIECDALHRISSVSGWRDLDLKHMMTLQDTVSIVFAKHYGIRMNSVNFRRLSDPIELFRVDFSSSNRNDIPRRKHFDVVAKESGTAHAMLFYWKVTDDEFVMSTDPEDTVNNFPRDMQWGQALQLLDASNGPLPTPVVFTEGKNYNFECNFSGDRVILHMQLCPESGNGEMTECEGKTT", "values": [{"measurement": "in vitro methylation", "setting": "RBP16", "result": "Results indicate methylation occurred"}, {"measurement": "in vitro methylation", "setting": "[1]", "result": "Results indicate methylation occurred"}, {"measurement": "in vitro methylation (3H-AdoMet, SDS-PAGE, fluorography)", "setting": "GST", "result": "Of the eight substrates tested, only GST was not methylated"}]}]}
